The target of the series is T1, His6-RacR (Escherichia coli JM83 (Rac prophage)) (UniProt P76062).
T1 sequence: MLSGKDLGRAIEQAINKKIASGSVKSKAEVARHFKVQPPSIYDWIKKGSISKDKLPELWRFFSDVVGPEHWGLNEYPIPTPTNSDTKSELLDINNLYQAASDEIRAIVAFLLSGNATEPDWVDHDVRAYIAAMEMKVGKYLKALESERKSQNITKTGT
Put plainly: EMSA. Particulars: EMSA: 10 mM Tris-HCl pH 8.0, 1 mM EDTA, 0.1 M NaCl, 0.1 mM DTT, 5% glycerol, 10 ug/mL BSA, 50 ug/mL poly(dI-C), 28 C 40 min; 6% PAGE in 0.5x TBE.

In the case of “GGTTCATCTCGGCTCCTGCTGCGGCGGTTGTCTTCGCGGATTTTGAAATAGAGATTTGTCAGATACGTCATTACGGCAATGATGATACCCACCAGCACGCCGATAGCGTTCCACTGCTCGGGGCTGTAGGCATTCAACATGCCGTTTAGGATGCTCCCGGCTGAAGCGCCATAGGCAGCACCAGTGGTTAGTTTGTCCATGCGATACATACTCTCACCTCGCTTTGTGCGAGTGCTGTTGCT (double strand) [lysN* probe]”, the binding entry is “binds”.

The record behind these values is paper PMC6715736.
